T1: RHPN1, Q8TCX5
T1 sequence (Q8TCX5 508-602, limits assumed, looked up): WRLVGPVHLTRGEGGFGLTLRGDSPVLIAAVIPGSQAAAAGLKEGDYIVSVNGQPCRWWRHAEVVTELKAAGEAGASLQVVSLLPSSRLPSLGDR

T2: LIN7B, Q9HAP6
T2 sequence (Q9HAP6 88-185, limits assumed, looked up): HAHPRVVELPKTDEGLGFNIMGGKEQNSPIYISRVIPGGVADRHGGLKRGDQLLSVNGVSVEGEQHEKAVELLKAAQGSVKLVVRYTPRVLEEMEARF

T3: DLG3_3, Q92796
T3 sequence (Q92796 374-475, limits assumed, looked up): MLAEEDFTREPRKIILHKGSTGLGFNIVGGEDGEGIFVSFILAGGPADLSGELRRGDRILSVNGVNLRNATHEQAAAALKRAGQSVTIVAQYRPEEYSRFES

T4: PDZRN3_1, Q9UPQ7
T4 sequence (Q9UPQ7 244-349, limits assumed, looked up): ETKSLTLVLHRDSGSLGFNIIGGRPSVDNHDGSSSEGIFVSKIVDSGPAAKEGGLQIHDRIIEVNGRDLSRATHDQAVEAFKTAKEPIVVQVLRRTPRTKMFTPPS

T5: PDZD7_3, Q9H5P4
T5 sequence (Q9H5P4 857-944, limits assumed, looked up): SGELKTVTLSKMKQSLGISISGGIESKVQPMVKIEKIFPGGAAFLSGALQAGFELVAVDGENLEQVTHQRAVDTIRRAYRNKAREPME

T6: MPP7, Q5T2T1
T6 sequence (Q5T2T1 134-230, limits assumed, looked up): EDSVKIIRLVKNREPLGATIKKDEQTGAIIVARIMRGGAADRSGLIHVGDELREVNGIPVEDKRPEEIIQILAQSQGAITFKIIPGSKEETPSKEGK

T7: MPDZ_12, O75970
T7 sequence (O75970 1857-1958, limits assumed, looked up): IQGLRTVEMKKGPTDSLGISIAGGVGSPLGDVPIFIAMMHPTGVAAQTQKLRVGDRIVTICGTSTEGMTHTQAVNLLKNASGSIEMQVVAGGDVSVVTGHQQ

T8: TIAM2, Q8IVF5
T8 sequence (Q8IVF5 885-986, limits assumed, looked up): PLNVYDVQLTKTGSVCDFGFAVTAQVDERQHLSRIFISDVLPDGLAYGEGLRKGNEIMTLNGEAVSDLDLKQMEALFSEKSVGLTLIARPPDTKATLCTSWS

T9: DFNB31_1, Q9P202
T9 sequence (Q9P202 135-233, limits assumed, looked up): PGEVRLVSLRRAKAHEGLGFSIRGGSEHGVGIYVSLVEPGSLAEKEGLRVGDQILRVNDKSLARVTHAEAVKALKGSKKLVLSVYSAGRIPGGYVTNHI

T10: DLG3_1, Q92796
T10 sequence (Q92796 125-227, limits assumed, looked up): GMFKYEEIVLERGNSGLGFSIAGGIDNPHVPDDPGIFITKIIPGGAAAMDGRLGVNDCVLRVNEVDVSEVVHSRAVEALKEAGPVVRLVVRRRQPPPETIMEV

T11: ARHGAP21, Q5T5U3
T11 sequence (Q5T5U3 45-169, limits assumed, looked up): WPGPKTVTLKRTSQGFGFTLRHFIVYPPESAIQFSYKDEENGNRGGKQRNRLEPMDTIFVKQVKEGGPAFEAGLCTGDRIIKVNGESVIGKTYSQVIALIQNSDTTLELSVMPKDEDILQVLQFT

T12: SHANK1, Q9Y566
T12 sequence (Q9Y566 658-767, limits assumed, looked up): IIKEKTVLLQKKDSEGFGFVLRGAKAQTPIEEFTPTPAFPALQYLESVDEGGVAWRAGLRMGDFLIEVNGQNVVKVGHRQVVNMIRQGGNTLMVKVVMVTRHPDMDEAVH


What was measured:
Assay in all cases: holdup assay
Parameters in all cases: key: below the threshold = too weak to quantify, mostly under pKd 3.1 to 4
Conditions in all cases: plain residues with an end cap or a label only (N-terminal biotin on a linker: ado-ado)
RHPN1, Q8TCX5 = biological target: T1, RHPN1, Q8TCX5
GOPC, Q9HD26 = biological target: GOPC, Q9HD26
LIN7B, Q9HAP6 = biological target: T2, LIN7B, Q9HAP6
DLG3_3, Q92796 = biological target: T3, DLG3_3, Q92796
PDZRN3_1, Q9UPQ7 = biological target: T4, PDZRN3_1, Q9UPQ7
PDZD7_3, Q9H5P4 = biological target: T5, PDZD7_3, Q9H5P4
ARHGEF12, Q9NZN5-2 = biological target: ARHGEF12, Q9NZN5-2
MPP7, Q5T2T1 = biological target: T6, MPP7, Q5T2T1
MPDZ_12, O75970 = biological target: T7, MPDZ_12, O75970
MAGI2_4, Q86UL8 = biological target: MAGI2_4, Q86UL8
HTRA2, O43464 = biological target: HTRA2, O43464
PARD3_3, Q8TEW0 = biological target: PARD3_3, Q8TEW0
TIAM2, Q8IVF5 = biological target: T8, TIAM2, Q8IVF5
DFNB31_1, Q9P202 = biological target: T9, DFNB31_1, Q9P202
LDB3, O75112 = biological target: LDB3, O75112
DLG3_1, Q92796 = biological target: T10, DLG3_1, Q92796
ARHGAP21, Q5T5U3 = biological target: T11, ARHGAP21, Q5T5U3
DLG1_1, Q12959 = biological target: DLG1_1, Q12959
SCRIB_2, Q14160 = biological target: SCRIB_2, Q14160
SCRIB_3, Q14160 = biological target: SCRIB_3, Q14160
IL16_1, Q14005 = biological target: IL16_1, Q14005
MAST1, Q9Y2H9 = biological target: MAST1, Q9Y2H9
SHANK1, Q9Y566 = biological target: T12, SHANK1, Q9Y566
PTPN3, P26045 = biological target: PTPN3, P26045
LNX1_1, Q8TBB1 = biological target: LNX1_1, Q8TBB1
Sequence of LNX1_1, Q8TBB1 (Q8TBB1 261-371): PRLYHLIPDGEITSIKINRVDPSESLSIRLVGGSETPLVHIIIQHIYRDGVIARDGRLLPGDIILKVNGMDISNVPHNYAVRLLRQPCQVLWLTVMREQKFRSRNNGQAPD

Sequence of SCRIB_3, Q14160 (Q14160 999-1103): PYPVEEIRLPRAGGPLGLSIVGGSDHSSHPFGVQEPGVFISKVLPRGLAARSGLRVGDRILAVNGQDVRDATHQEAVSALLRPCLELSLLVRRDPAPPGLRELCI
Sequence of MAST1, Q9Y2H9 (Q9Y2H9 962-1065): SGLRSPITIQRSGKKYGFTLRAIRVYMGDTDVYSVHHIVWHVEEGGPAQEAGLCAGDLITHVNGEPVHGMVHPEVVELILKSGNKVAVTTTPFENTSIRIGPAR
Sequence of HTRA2, O43464 (O43464 355-458): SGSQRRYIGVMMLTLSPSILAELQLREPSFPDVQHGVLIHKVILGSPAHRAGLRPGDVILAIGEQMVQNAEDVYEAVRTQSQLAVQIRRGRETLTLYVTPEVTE
Sequence of ARHGEF12, Q9NZN5-2 (Q9NZN5 other isoform, or with tags, fused parts or gaps): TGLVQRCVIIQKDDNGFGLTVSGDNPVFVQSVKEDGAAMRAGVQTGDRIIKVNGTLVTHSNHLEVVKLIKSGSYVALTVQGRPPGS
Sequence of SCRIB_2, Q14160 (Q14160 857-960): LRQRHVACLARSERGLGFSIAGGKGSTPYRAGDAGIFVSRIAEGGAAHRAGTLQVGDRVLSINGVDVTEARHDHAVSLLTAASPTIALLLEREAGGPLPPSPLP
Sequence of PTPN3, P26045 (P26045 505-587): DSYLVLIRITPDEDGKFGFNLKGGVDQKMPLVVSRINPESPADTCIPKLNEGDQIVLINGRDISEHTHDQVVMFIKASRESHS
Sequence of LDB3, O75112 (O75112 1-94): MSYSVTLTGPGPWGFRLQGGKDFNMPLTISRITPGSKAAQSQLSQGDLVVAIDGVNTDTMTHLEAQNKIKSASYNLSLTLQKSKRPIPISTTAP
Sequence of IL16_1, Q14005 (Q14005 210-306): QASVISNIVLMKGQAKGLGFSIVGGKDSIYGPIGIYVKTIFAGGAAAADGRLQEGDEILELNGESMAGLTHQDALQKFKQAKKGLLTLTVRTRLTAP
Sequence of PARD3_3, Q8TEW0 (Q8TEW0 582-685): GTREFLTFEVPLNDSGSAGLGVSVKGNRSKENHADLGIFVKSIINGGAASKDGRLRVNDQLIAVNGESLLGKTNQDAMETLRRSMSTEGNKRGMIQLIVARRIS
Sequence of MAGI2_4, Q86UL8 (Q86UL8 772-865): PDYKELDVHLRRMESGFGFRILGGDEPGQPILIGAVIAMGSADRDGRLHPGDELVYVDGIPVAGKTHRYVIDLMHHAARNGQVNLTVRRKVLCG

Row | Binder | pKd (RHPN1, Q8TCX5) | pKd (GOPC, Q9HD26) | pKd (LIN7B, Q9HAP6) | pKd (DLG3_3, Q92796) | pKd (PDZRN3_1, Q9UPQ7) | pKd (PDZD7_3, Q9H5P4) | pKd (ARHGEF12, Q9NZN5-2) | pKd (MPP7, Q5T2T1) | pKd (MPDZ_12, O75970) | pKd (MAGI2_4, Q86UL8) | pKd (HTRA2, O43464) | pKd (PARD3_3, Q8TEW0) | pKd (TIAM2, Q8IVF5) | pKd (DFNB31_1, Q9P202) | pKd (LDB3, O75112) | pKd (DLG3_1, Q92796) | pKd (ARHGAP21, Q5T5U3) | pKd (DLG1_1, Q12959) | pKd (SCRIB_2, Q14160) | pKd (SCRIB_3, Q14160) | other results
1 | ALPLPQSSTC [IGF1R, P08069] | 3.58 | 3.55 | 3.86 | below the threshold | below the threshold | below the threshold | 4.95 | below the threshold | below the threshold | below the threshold | below the threshold | below the threshold | below the threshold | below the threshold | below the threshold | below the threshold | 3.76 | below the threshold | below the threshold | below the threshold | pKd (IL16_1, Q14005): below the threshold; pKd (MAST1, Q9Y2H9): below the threshold; pKd (SHANK1, Q9Y566): below the threshold; pKd (PTPN3, P26045): below the threshold; pKd (LNX1_1, Q8TBB1): 3.58
2 | REKKFFCTIL [GNG4, P50150] | 4.48 | 5.18 | 3.97 | 4.38 | 4.14 | 5.44 | 5.87 | 3.49 | 3.62 | 4.26 | 4.49 | 4.27 | 3.98 | 4.1 | below the threshold | 3.65 | 3.93 | 4.23 | below the threshold | 4.91 | pKd (IL16_1, Q14005): 3.67; pKd (MAST1, Q9Y2H9): 5.2; pKd (SHANK1, Q9Y566): 5.21; pKd (PTPN3, P26045): 4.47; pKd (LNX1_1, Q8TBB1): 5.09
3 | DHLGGGGESM [TNRC6A, Q8NDV7] | below the threshold | below the threshold | below the threshold | below the threshold | below the threshold | below the threshold | below the threshold | below the threshold | below the threshold | below the threshold | below the threshold | below the threshold | below the threshold | below the threshold | below the threshold | below the threshold | below the threshold | below the threshold | below the threshold | below the threshold | pKd (IL16_1, Q14005): below the threshold; pKd (MAST1, Q9Y2H9): 3.91; pKd (SHANK1, Q9Y566): below the threshold; pKd (PTPN3, P26045): 3.7; pKd (LNX1_1, Q8TBB1): below the threshold
4 | IPGKEFDTPL [PLCB1, Q9NQ66] | 3.65 | below the threshold | below the threshold | below the threshold | 4.33 | 3.8 | 3.61 | below the threshold | below the threshold | below the threshold | below the threshold | below the threshold | below the threshold | 4.03 | below the threshold | below the threshold | 3.58 | below the threshold | below the threshold | 4.3 | pKd (IL16_1, Q14005): below the threshold; pKd (MAST1, Q9Y2H9): 4.31; pKd (SHANK1, Q9Y566): 3.96; pKd (PTPN3, P26045): 4.82; pKd (LNX1_1, Q8TBB1): below the threshold

Second part, led by results:

Row | pKd (RHPN1, Q8TCX5) | pKd (GOPC, Q9HD26) | pKd (LIN7B, Q9HAP6) | pKd (DLG3_3, Q92796) | pKd (PDZRN3_1, Q9UPQ7) | pKd (PDZD7_3, Q9H5P4) | pKd (ARHGEF12, Q9NZN5-2) | pKd (MPP7, Q5T2T1) | pKd (MPDZ_12, O75970) | pKd (MAGI2_4, Q86UL8) | pKd (HTRA2, O43464) | pKd (PARD3_3, Q8TEW0) | pKd (TIAM2, Q8IVF5) | pKd (DFNB31_1, Q9P202) | pKd (LDB3, O75112) | pKd (DLG3_1, Q92796) | pKd (ARHGAP21, Q5T5U3) | pKd (DLG1_1, Q12959) | pKd (SCRIB_2, Q14160) | pKd (SCRIB_3, Q14160) | Binder | other results
5 | 4.55 | 3.69 | 3.54 | 4.48 | 4.07 | 4.9 | 4.05 | below the threshold | below the threshold | 4.74 | below the threshold | below the threshold | below the threshold | 3.73 | below the threshold | 4.47 | below the threshold | 4.82 | 4.25 | 4.69 | TGPWKNETTV [ADGRA1, Q86SQ6] | pKd (IL16_1, Q14005): 3.83; pKd (MAST1, Q9Y2H9): 4.71; pKd (SHANK1, Q9Y566): below the threshold; pKd (PTPN3, P26045): 4.76; pKd (LNX1_1, Q8TBB1): below the threshold
6 | 3.58 | below the threshold | 3.72 | below the threshold | below the threshold | below the threshold | 3.81 | below the threshold | below the threshold | below the threshold | below the threshold | below the threshold | 4.03 | below the threshold | below the threshold | 3.81 | below the threshold | 4.08 | 3.57 | below the threshold | RRLQGTSSMV [GOLT1A, Q6ZVE7] | pKd (IL16_1, Q14005): 4.13; pKd (MAST1, Q9Y2H9): 4.35; pKd (SHANK1, Q9Y566): below the threshold; pKd (PTPN3, P26045): 3.99; pKd (LNX1_1, Q8TBB1): 3.83

Reference: PMC9482650, “Quantitative fragmentomics allow affinity mapping of interactomes” (Nature Communications, 2022)
